From article PMC6134688, “Identification of a novel site of interaction between ataxin-3 and the amyloid aggregation inhibitor polyglutamine binding peptide 1” (European Journal of Mass Spectrometry (Chichester, England), 2017)
Where no end group is shown, it is not given here.

B2: JD+, the Josephin domain plus residues 183-221 (ataxin-3 residues 1-221) (domain or fragment, UniProt P54252 1-221, looked up)
chain: MESIFHEKQEGSLCAQHCLNNLLQGEYFSPVELSSIAHQLDEEERMRMAEGGVTSEDYRTFLQQPSGNMDDSGFFSIQVISNALKVWGLELILFNSPEYQRLRIDPINERSFICNYKEHWFTVRKLGKQWFNLNSLLTGPELISDTYLALFLAQLQQEGYSIFVVKGDLPDCEADQLLQMIRVQQMHRPKLIGEELAQLKEQRVHKTDLERVLEANDGSGM
notes: ataxin-3 residues 1-221, made by a stop codon in the gene encoding ataxin-3 14Q; printed mass 27,704.4 Da; also called ataxin-3 1-221

Key:
ataxin-3 14Q [1] = target: ataxin-3 14Q (UniProt P54252); experiment: 1H T1rho NMR (signal of the peptide); 50 μM QBP1 and 10 μM protein in 250 mM ammonium hydrogen carbonate, 10% (v/v) D2O; 100 ms spin-lock; methyl region 0.45-0.75 ppm integrated
ataxin-3 78Q [2] = target: ataxin-3 78Q (UniProt P54252); experiment: as above
[3] = target: B2; experiment: native MS; nanoESI-MS; 10 μM protein and 50 μM QBP1 (five-fold molar excess) in 250 mM ammonium hydrogen carbonate, 1 mM dithiothreitol, pH 7.8; settings: both partners purified
[4] = target: T1, JDU1, the Josephin domain plus the first UIM (ataxin-3 residues 1-241) (UniProt P54252 1-241); experiment: as above; settings: both partners purified
T1 construct: ataxin-3 residues 1-241, made by a stop codon in the gene encoding ataxin-3 14Q; printed mass 30,046.7 Da

[5] = target: T2, MBP-183-221, maltose binding protein linked to residues 183-221 of ataxin-3 (UniProt P54252 183-221); experiment: native MS; nanoESI-MS; equimolar QBP1 (for the TEV-cleaved MBP fusion the ratio is not told); settings: both partners purified
T2 construct: printed mass 49,207.6 Da; MBP drawn from PDB 1LLS; not shown: MBP, N-terminal, kept
T2 chain (looked up): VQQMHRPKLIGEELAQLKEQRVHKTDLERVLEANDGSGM

ataxin-3 14Q [6] = target: ataxin-3 14Q (UniProt P54252); experiment: native MS; nanoESI-MS; 10 μM protein and 50 μM QBP1 (five-fold molar excess) in 250 mM ammonium hydrogen carbonate, 1 mM dithiothreitol, pH 7.8
ataxin-3 78Q [7] = target: ataxin-3 78Q (UniProt P54252); experiment: as above
ataxin-3 14Q [8] = target: ataxin-3 14Q (UniProt P54252); experiment: native MS; nanoESI-MS; 16-fold excess of QBP1 over ataxin-3 14Q (Supplementary Figure 1)
[9] = target: the molecule itself; experiment: native MS; nanoESI-MS; 10 μM protein and 50 μM QBP1 (five-fold molar excess) in 250 mM ammonium hydrogen carbonate, 1 mM dithiothreitol, pH 7.8

B1: polyQ binding peptide 1 (peptide)
peptide: Ac-SNWKWWPGIFD
notes: printed mass 1477.6 Da; also called QBP1; source: synthetic peptide, bought: Bio-Synthesis Inc
loss of QBP1 signal in T1rho NMR (ataxin-3 14Q [1]): 22%
loss of QBP1 signal in T1rho NMR (ataxin-3 78Q [2]): 24%
stoichiometry N [3]: 1
stoichiometry N [4]: 1
stoichiometry N [5]: 1
stoichiometry N (ataxin-3 14Q [6]): 1
stoichiometry N (ataxin-3 78Q [7]): 1
stoichiometry N (ataxin-3 14Q [8]): 1

B2
stoichiometry N [9]: 2
